Laboratory results from the supplement of paper PMC9170038.

System: MS2 coat protein
Assay: apparent KD of MS2 coat protein; designed switch direction (-1 OFF switch, 1 ON switch): 1; higher = weaker reporter binding
Summary of the method: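 Apparent KD, taken as the median over clusters for each design, was obtained by curve-fitting normalised cluster fluorescence. Designed RNA switches had been transcribed on Illumina chips by stalled E. coli RNA polymerase and titrated with SNAP-549-labelled MS2 coat protein, doubling from 0.7 or 1.5 nM to 3 µM.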

[1] = Eterna round: R95, input ligand: FMN 200 uM
[2] = Eterna round: R95, input ligand: microRNA oligo, concentration not stated
[3] = Eterna round: R95, input ligand: none
[4] = input ligand: microRNA oligo, concentration not stated

GGAGAGAGAGCACAGGAUAUGAGAGGAGAGACAUGAGGAUCACCCAUGUAAGAGAGAGAGGAGAGUUAGAAGGGUGAGAGAGAGG [Altered State 2-20 - Jieux - Same State 2] (puzzle: Same State 2)
apparent KD of MS2 coat protein [1]: 54.7 nM
apparent KD of MS2 coat protein [2]: 43 nM
apparent KD of MS2 coat protein [3]: 102 nM

AUUAUUAAUAUAGGAUAUGUAAAACAUGAGGAUCACCCAUGUGAUAUCGUGAGUAAGGAGAGAGAACAGAAGGAUAUUUUUUUU [JMF's solution 3] (Eterna round: R96, puzzle: Same State NG 2)
apparent KD of MS2 coat protein (input ligand: FMN 200 uM): 40.6 nM
apparent KD of MS2 coat protein [4]: 30.5 nM
apparent KD of MS2 coat protein (input ligand: none): 43.3 nM

CCGAUUUAUGGAGGAUAUGGAGCCUUAUUGGCUCCAGAAGGUCAAUACAUGAGGAUCACCCAUGUGUCGGCGGUCAAUAGACCG [Eli NG1ss - 72] (Eterna round: R96, puzzle: Same State NG 1)
apparent KD of MS2 coat protein (input ligand: FMN 200 uM): 61.7 nM
apparent KD of MS2 coat protein [4]: 44.2 nM
apparent KD of MS2 coat protein (input ligand: none): 128 nM

AGCUAGUACGAAGGAUAUACAAACAUGAGGAUCACCCAUGUAUACAUGGUUUAAUGAGACUACAUGUAGAAGGUCGUACUAGCA [SameState NG2 #13] (Eterna round: R96, puzzle: Same State NG 2)
apparent KD of MS2 coat protein (input ligand: FMN 200 uM): 559 nM
apparent KD of MS2 coat protein [4]: 423 nM
apparent KD of MS2 coat protein (input ligand: none): 1030 nM

AGGGAGGAAGCUGAGGAUAUCGUAAGGAGGACAUGAGGAUCACCCAUGUGUGUAGAAUUGGAGGACGAGAAGGCAGAGGAGUGGG [JR_SS2_Sub053] (puzzle: Same State 2)
apparent KD of MS2 coat protein [1]: 34 nM
apparent KD of MS2 coat protein [2]: 21.3 nM
apparent KD of MS2 coat protein [3]: 37 nM

AUUUUUAAUGCAGGAUAUGAUUAACAUGAGGAUCACCCAUGUGGUGUUGUGAGUAAGGAGAGUGAUCAGAAGGGCAAUUUUUUU [JMF's solution 78] (Eterna round: R96, puzzle: Same State NG 2)
apparent KD of MS2 coat protein (input ligand: FMN 200 uM): 731 nM
apparent KD of MS2 coat protein [4]: 226 nM
apparent KD of MS2 coat protein (input ligand: none): 433 nM

GAAAGAGGAAGCGAGGAUAUCGUGUUGAGUACAUGAGGAUCACCCAUGUUGUAGGUAGAGGUAGGCGAGAAGGCGCAGGAGAAGA [JR_SS2_Sub0101] (puzzle: Same State 2)
apparent KD of MS2 coat protein [1]: 60 nM
apparent KD of MS2 coat protein [2]: 40.6 nM
apparent KD of MS2 coat protein [3]: 55.4 nM

AGCUAUUAAUCAGGAUAUGGUGACAUGAGGAUCACCCAUGUAUAGAUGAUUAAAUGUGGUCUAAACUAGAAGGGAUUGCUAACA [SameState NG2 #55] (Eterna round: R96, puzzle: Same State NG 2)
apparent KD of MS2 coat protein (input ligand: FMN 200 uM): 214 nM
apparent KD of MS2 coat protein [4]: 247 nM
apparent KD of MS2 coat protein (input ligand: none): 219 nM

GAGUGGUUGGGAGGAUAUGCAUUGUUAUUAAAUGCAGAAGGUUUUAACAUGAGGAUCACCCAUGUAGGACUAUUCCUGUGUAUC [Parity 69 - Jieux - Same State NG 1] (Eterna round: R96, puzzle: Same State NG 1)
apparent KD of MS2 coat protein (input ligand: FMN 200 uM): 13 nM
apparent KD of MS2 coat protein [4]: 12.1 nM
apparent KD of MS2 coat protein (input ligand: none): 15.8 nM

AGUCCAGCCUGAGCUGGACAAAGGCAUGUACAUGAGGAUCACCCAUGUCAUGUACAAGCUUUUUGCUCGUCUUAAUA [Zipper 49 - 1] (Eterna round: R96, puzzle: Sensor for hsa-mir-208a)
apparent KD of MS2 coat protein (input ligand: FMN 200 uM): 211 nM
apparent KD of MS2 coat protein [4]: 12.6 nM
apparent KD of MS2 coat protein (input ligand: none): 178 nM

GUAGCAUACCGAGGAUAUUCAUAUUAUACAUGAGGAUCACCCAUGUAAGGUCGAUUACGACCUUGGGAGAAGGCGGAAUGCUAC [Xeonanis - 20 Mod34] (Eterna round: R96, puzzle: Same State NG 2)
apparent KD of MS2 coat protein (input ligand: FMN 200 uM): 20.3 nM
apparent KD of MS2 coat protein [4]: 71.9 nM
apparent KD of MS2 coat protein (input ligand: none): 108 nM

AACUAACAUGAGGAUCACCCAUGUUGCAGCGGUUGAGGAUAUGUGGGUGAAAAUAGCAUGGCAGAAGGCGAGUGUA [SameState1 Malc#25] (Eterna round: R96, puzzle: Same State 1)
apparent KD of MS2 coat protein (input ligand: FMN 200 uM): 407 nM
apparent KD of MS2 coat protein [4]: 95.9 nM
apparent KD of MS2 coat protein (input ligand: none): 208 nM

GGAGCCUGCACUGAGGAUAUUCAUAGUGUAACAUGAGGAUCACCCAUGUAGGCCCUGAGGCCUUGGGAGAAGGCAGUGCGGCUCG [JL-ss2-3.05 ViennaUCT mod] (puzzle: Same State 2)
apparent KD of MS2 coat protein [1]: 27.9 nM
apparent KD of MS2 coat protein [2]: 355 nM
apparent KD of MS2 coat protein [3]: 447 nM

GGUCCAGCCUGAGCUGGACAAAAGCAUGUACAUGAGGAUCACCCAUGUCAUGUGCAAGCUUUUUGCUCGUCUUAAAA [JL mod - D87 - 4] (puzzle: Sensor for hsa-mir-208a)
apparent KD of MS2 coat protein [1]: 67.3 nM
apparent KD of MS2 coat protein [2]: 11 nM
apparent KD of MS2 coat protein [3]: 73.4 nM

GUGCAACCGUGUGAGGAUAUCGGUGGUAAAACAUGAGGAUCACCCAUGUCCGAAGCUCGGACCUCCGAGAAGGCGCACAGUUGCA [Same State 2 - Mod of Erisin v.1] (puzzle: Same State 2)
apparent KD of MS2 coat protein [1]: 6.82 nM
apparent KD of MS2 coat protein [2]: 5.46 nM
apparent KD of MS2 coat protein [3]: 7.08 nM

AAAAGAACCACAGGAUAUACACUCCUAGCGGCGGUAGAAGGGUGGAACAUGAGGAUCACCCAUGUACGUCUGGAAUCAGACUAA [Radianis] (Eterna round: R96, puzzle: Same State NG 1)
apparent KD of MS2 coat protein (input ligand: FMN 200 uM): 267 nM
apparent KD of MS2 coat protein [4]: 233 nM
apparent KD of MS2 coat protein (input ligand: none): 857 nM

GCGAGCGUACUUGCUACAUGAGGAUCACCCAUGUUUAUUGGACAGGAUAUGGUACCGUUUCGGUACCAGAAGGGUCCACAUGUA [JL SSNG3 3.85] (Eterna round: R96, puzzle: Same State NG 3)
apparent KD of MS2 coat protein (input ligand: FMN 200 uM): 124 nM
apparent KD of MS2 coat protein [4]: 198 nM
apparent KD of MS2 coat protein (input ligand: none): 549 nM

AAAGAACAUGAGGAUCACCCAUGUGGAAGAGGCACAGGAUAUCACCUCGCACGUGCGAGGUGAGAAGGGUGAUGGU [Zalecema] (puzzle: Same State 1)
apparent KD of MS2 coat protein [1]: 122 nM
apparent KD of MS2 coat protein [2]: 80.7 nM
apparent KD of MS2 coat protein [3]: 128 nM

ACAAGCUUUUCUGCAUUGAAAGGUUGGUUACAUGAGGAUCACCCAUGUUUUUAUGAAAAUAAUGCUCCUCGUCUUAU [JR_SHM208A_Sub093] (puzzle: Sensor for hsa-mir-208a)
apparent KD of MS2 coat protein [1]: 264 nM
apparent KD of MS2 coat protein [2]: 19.8 nM
apparent KD of MS2 coat protein [3]: 252 nM

AUUAGUUAUGCAGGAUAUGAUUAACAUGAGGAUCACCCAUGUGGUGUUGUGAGUAAGGAGAGUGAUCAGAAGGGCAUUUUUUUU [JMF's solution 67] (Eterna round: R96, puzzle: Same State NG 2)
apparent KD of MS2 coat protein (input ligand: FMN 200 uM): 462 nM
apparent KD of MS2 coat protein [4]: 264 nM
apparent KD of MS2 coat protein (input ligand: none): 644 nM

GUGCUCGUGUGAGGAUAUGCUUCCGUUUCGGCUGCAGAAGGUACUAUUAUACAUGAGGAUCACCCAUGUCUCUUUUCUCCGGUG [salish99_SSNG1_r04_913] (Eterna round: R96, puzzle: Same State NG 1)
apparent KD of MS2 coat protein (input ligand: FMN 200 uM): 38.3 nM
apparent KD of MS2 coat protein [4]: 27.4 nM
apparent KD of MS2 coat protein (input ligand: none): 37.2 nM

GUGCGGCUGCCACAGGAUAUACGUGGAUCGACAUGAGGAUCACCCAUGUAUAUCCUAAUAAUUGCGUAGAAGGGUGGUCAGCCGG [Anzaenenes] (puzzle: Same State 2)
apparent KD of MS2 coat protein [1]: 143 nM
apparent KD of MS2 coat protein [2]: 608 nM
apparent KD of MS2 coat protein [3]: 825 nM

UAUGAACAUGAGGAUCACCCAUGUGGAAAAGACACAGGAUAUCAUCCCGGACGUGCGAGAUGAGAAGGGUGAUGGU [Edrive] (puzzle: Same State 1)
apparent KD of MS2 coat protein [1]: 267 nM
apparent KD of MS2 coat protein [2]: 205 nM
apparent KD of MS2 coat protein [3]: 367 nM

UUGAAGAAUUAAGGAUAUUGAAUACAUAUGUUUAACAUGAGGAUCACCCAUGUGGGUUGCGGUAUCGAGAAGGUAAAUUAAAAG [Mat - Same State NG 2 - JL mod - D2] (Eterna round: R96, puzzle: Same State NG 2)
apparent KD of MS2 coat protein (input ligand: FMN 200 uM): 142 nM
apparent KD of MS2 coat protein [4]: 179 nM
apparent KD of MS2 coat protein (input ligand: none): 131 nM

UUGUUUCGUCAUUAACAUGAGGAUCACCCAUGUAUCGUCUCAAAGGAUAUAUAUGCUUGUUUGCUAUAGAAGGUUGAUUGUUGU [JR_SSNG3_Sub093] (Eterna round: R96, puzzle: Same State NG 3)
apparent KD of MS2 coat protein [4]: 91.6 nM

UUGCGCUGUCGAGAGGAUAUGCGGUGUUGGACAUGAGGAUCACCCAUGUUAGCGAUAGCAUUACGGUAGAAGGCUCUUCAGCUGC [salish99_ss2_r3_096] (puzzle: Same State 2)
apparent KD of MS2 coat protein [1]: 23.4 nM
apparent KD of MS2 coat protein [2]: 17 nM
apparent KD of MS2 coat protein [3]: 21.9 nM

UUUAGAUAGCGAGGAUAUCGCGAGGAUCACCCGUGAGAAGGCGCAGAGCCGAGGAUCACCCGGCUGAUCCUGAGAAGGAGGUCA (Eterna round: R96, puzzle: Same State NG 1)
apparent KD of MS2 coat protein (input ligand: FMN 200 uM): 92.3 nM
apparent KD of MS2 coat protein [4]: 155 nM
apparent KD of MS2 coat protein (input ligand: none): 245 nM

GAAGGAUGAGCGUAGGAUAUAGGAGGAGUGACAUGAGGAUCACCCAUGUAGUAAGAGGGAGGGUACUAGAAGGACGAGGAAGAAG [JR_SS2_Sub066] (puzzle: Same State 2)
apparent KD of MS2 coat protein [1]: 602 nM
apparent KD of MS2 coat protein [2]: 6 nM
apparent KD of MS2 coat protein [3]: 16.3 nM

CGACACACGGCAGGAUAUGCUUAGCAAAGCUAAGCAGAAGGGCCUCAUGUCGUGGAAACGUGACAUGAGGAUCACCCAUGUCGC [Omei SS(NG)1 C] (Eterna round: R96, puzzle: Same State NG 1)
apparent KD of MS2 coat protein (input ligand: FMN 200 uM): 31 nM
apparent KD of MS2 coat protein [4]: 14.6 nM
apparent KD of MS2 coat protein (input ligand: none): 19.9 nM

CGUUCACAUGAGGAUCACCCAUGUCAGAUUUGGUCAGGAUAUGGUCGGCUUCCGCUAUUGCCAGAAGGGACUGUUG [JR_SS001_Sub705] (Eterna round: R96, puzzle: Same State 1)
apparent KD of MS2 coat protein (input ligand: FMN 200 uM): 24.3 nM
apparent KD of MS2 coat protein [4]: 28.8 nM
apparent KD of MS2 coat protein (input ligand: none): 35.2 nM

AGUCCAGCCUGAGCUGGACAAAAGCAUGUACAUGAGGAUCACCCAUGUUCAUGUACAAGCUUUUUGCUCGUCUUACG [salish99_208a_r3_078] (puzzle: Sensor for hsa-mir-208a)
apparent KD of MS2 coat protein [1]: 673 nM
apparent KD of MS2 coat protein [2]: 17.1 nM
apparent KD of MS2 coat protein [3]: 638 nM
